Sequences and labels used below:
B1: 370_E03 (antibody, V domains shown)
VH: EVQLLESGGGLVQPGGSLRLSCAASGFTFSSYGMNWVRQAPGKGLEWVSSINYNGGYKGYADSVKGRFTISRDNSKNTLYLQMNSLRAEDTAVYYCARSANWHDTALDYWGQGTLVTVSS
VL: DIQMTQSPSSLSASVGDRVTITCRASQSILTYLNWYQQKPGKAPKLVIYYASNRASGVPSRFSGSGSGTDFTLTISSLQPEDFATYYCQQSYDSPLTFGGGTKVEIK
B2: 372_C07 (antibody, V domains shown)
VH: B1 VH with S31D, G33S, S50N, G55S, K58T, G59S, A106H
VL: B1 VL with T31S, Y50A, S52T, N53S, A55H, Y92D, D93N, S94T
B3: 373_C06 (antibody, V domains shown)
VH: B1 VH with G33S, S49A, S50G, K58T
VL: B1 VL with L30V, T31S, L33V, Y50A, S52T, N53S, S94T
B4: 371_A08 (antibody, V domains shown)
VH: B1 VH with N35H, K58T, G59S
VL: B1 VL with T31S, Y50A, S52T, N53S, D93E, S94L
B5: 370_F05 (antibody, V domains shown)
VH: B1 VH with S50G, G55S, K58T, G59S
VL: B1 VL with L30V, T31S, L33V, Y50A, S52T, N53S, D93E, S94T
B6: 371_A06 (antibody, V domains shown)
VH: B1 VH with S49A, S50G, K58T, G59S
VL: B1 VL with Y50A, S52T, N53S, A55H
B7: 371_D09 (antibody, V domains shown)
VH: B1 VH with G33S, S50N, G55S, K58T
VL: B1 VL with Y50A, S52T, N53S, D93N, S94N
B8: 372_B04 (antibody, V domains shown)
VH: B1 VH with S30D, S49A, S50N, K58T, G59S
VL: B1 VL with T31S, L33V, Y50A, S52T, N53S, R54L
B9: 372_D02 (antibody, V domains shown)
VH: B1 VH with N35H, S49A, S50G, K58T
VL: B1 VL with Y50A, S52T, N53S, S94N
B10: 373_C04 (antibody, V domains shown)
VH: B1 VH with G33S, S49A, S50N, G55S, K58T
VL: B1 VL with L30I, T31S, L33V, Y50A, A51V, S52T, N53S, D93N
B11: 371_A03 (antibody, V domains shown)
VH: B1 VH with S31D, S49A, S50N, K58T
VL: B1 VL with T31S, Y50A, A51T, S52T, N53S, D93E
B12: 372_F03 (antibody, V domains shown)
VH: B1 VH with S49A, S50G, K58T, G59S
VL: B1 VL with T31S, Y50A, S52T, N53S, S94T
B13: 370_F10 (antibody, V domains shown)
VH: B1 VH with G33S, S49A, S50G, K58T, G59S
VL: B1 VL with L30V, T31S, Y50A, S52T, N53S, D93N
B14: 373_A10 (antibody, V domains shown)
VH: B1 VH with S50G, G55S, K58T, G59S
VL: B1 VL with T31S, Y50A, S52T, N53S, S94L
B15: 370_G06 (antibody, V domains shown)
VH: B1 VH with S31D, N35H, K58T, G59S
VL: B1 VL with T31S, L33V, Y50A, S52T, N53S, Y92D, D93N, S94T
B16: 370_E09 (antibody, V domains shown)
VH: B1 VH with S30D, S31D, Y32S, G33S, N35H, S50N, K58T, R98K
VL: B1 VL with T31S, L33V, Y50A, S52T, N53S, D93E, S94L
B17: 370_F07 (antibody, V domains shown)
VH: B1 VH with S30D, G33S, S50N
VL: B1 VL with T31S, V47L, Y50A, S52T, N53S, D93N, S94L
B18: 371_B07 (antibody, V domains shown)
VH: B1 VH with S30D, G33S, S49A, S50G, K58T, G59S
VL: B1 VL with L33V, V47L, Y50A, S52T, N53S, D93E, S94L
B19: 371_A12 (antibody, V domains shown)
VH: B1 VH with S30D, G33S, S49A, S50G, G55S, K58T, G59S
VL: B1 VL with T31S, L33V, Y50A, S52T, N53S, R54L, S94T
B20: 371_A07 (antibody, V domains shown)
VH: B1 VH with S31D, G33S, S50N, G59S
VL: B1 VL with T31S, Y50A, A51T, S52T, N53S, S94L
B21: 371_H09 (antibody, V domains shown)
VH: B1 VH with S30D, G33S, S50N, K58T, G59S
VL: B1 VL with L33V, Y50A, S52T, N53S, R54L
B22: 373_B10 (antibody, V domains shown)
VH: B1 VH with S30D, S50N, K58T, G59S
VL: B1 VL with T31S, V47L, Y50A, S52T, N53S, S94L
B23: 373_A08 (antibody, V domains shown)
VH: B1 VH with S30D, S50N, K58T
VL: B1 VL with L30V, T31S, L33V, V47L, Y50A, S52T, N53S, R54L, D93S, S94L
B24: 373_B06 (antibody, V domains shown)
VH: B1 VH with S31D, G33S, S49A, S50G, K58T
VL: B1 VL with L33V, Y50A, S52T, N53S, A55H, D93E
B25: 370_G10 (antibody, V domains shown)
VH: B1 VH with S31D, S50G, G55S, K58T, G59S
VL: B1 VL with L30S, T31S, V47L, Y50V, A51V, S52N, D93E, S94N
B26: 373_C11 (antibody, V domains shown)
VH: B1 VH with G33S, S50G, G55S, K58T
VL: B1 VL with L33V, Y50A, A51V, S52T, N53S, D93E, S94T
B27: 371_F06 (antibody, V domains shown)
VH: B1 VH with S30D, G33S, S49A, S50N, K58T, G59S
VL: B1 VL with L30V, T31S, Y50A, S52T, N53S, A55H, D93N
B28: 370_G02 (antibody, V domains shown)
VH: B1 VH with S31D, G33S, S49A, S50N
VL: B1 VL with L30V, T31S, V47L, Y50A, S52T, N53S, A55H
B29: 371_F04 (antibody, V domains shown)
VH: B1 VH with S30D, G33S, S49A, S50G, G55S
VL: B1 VL with T31S, V47L, Y50A, S52T, N53S, A55H, D93N, S94N
B30: 370_G09 (antibody, V domains shown)
VH: B1 VH with S49A, S50G, G59S
VL: B1 VL with T31S, L33V, Y50A, S52T, N53S, D93E
B31: 370_G11 (antibody, V domains shown)
VH: B1 VH with G33S, S49A, G55S, K58T, G59S, A106H
VL: B1 VL with L30V, T31S, Y50A, S52T, N53S, D93S, S94L
B32: 372_A04 (antibody, V domains shown)
VH: B1 VH with S30D, G33S, S50G, G55S, K58T, G59S
VL: B1 VL with Y50A, S52T, N53S, D93E, S94T
B33: 372_F08 (antibody, V domains shown)
VH: B1 VH with S31D, G33S, S50N, G55S, K58T
VL: B1 VL with L33V, Y50A, S52T, N53S, S94T
B34: 372_F06 (antibody, V domains shown)
VH: B1 VH with S31D, S49A, S50G, G59S
VL: B1 VL with T31S, L33V, V47L, Y50A, S52T, N53S, R54L, D93E, S94T
B35: 370_G03 (antibody, V domains shown)
VH: B1 VH with G33S, S49A, S50N, K58T
VL: B1 VL with L33V, Y50A, A51T, S52T, N53S, D93N, S94N
B36: 370_H01 (antibody, V domains shown)
VH: B1 VH with G33S, S50G, G55S
VL: B1 VL with L30I, T31S, V47L, Y50A, A51V, S52T, N53S, S94T
B37: 371_F01 (antibody, V domains shown)
VH: B1 VH with G33S, S49A, S50G, K58T
VL: B1 VL with L33V, Y50A, S52T, N53S, R54L, D93N, S94N
B38: 371_F08 (antibody, V domains shown)
VH: B1 VH with S30D, S31D, G33S, S50G, K58T
VL: B1 VL with L30V, T31S, L33V, Y50A, S52T, N53S, A55H, D93E
B39: 371_B06 (antibody, V domains shown)
VH: B1 VH with S30D, G33S, S49A, S50G, G59S
VL: B1 VL with L33V, Y50A, S52T, N53S, A55H, D93N, S94L
B40: 373_C08 (antibody, V domains shown)
VH: B1 VH with G33S, S49A, S50N, K58T, G59S
VL: B1 VL with L30I, T31S, V47L, Y50A, N53S, R54L, A55Q, D93N, S94N
B41: 373_B04 (antibody, V domains shown)
VH: B1 VH with S49A, S50G, G55S
VL: B1 VL with V47L, Y50A, S52T, N53S, D93E, S94T
B42: 370_H09 (antibody, V domains shown)
VH: B1 VH with S49A, S50N, K58T, G59S
VL: B1 VL with L30V, T31S, L33V, V47L, Y50A, S52T, N53S, S94N
B43: 370_E06 (antibody, V domains shown)
VH: B1 VH with S50G, G55S, G59S
VL: B1 VL with T31S, Y50A, A51T, S52T, N53S, R54L, S94T
B44: 371_G10 (antibody, V domains shown)
VH: B1 VH with G33S, S50G, G59S
VL: B1 VL with L30S, T31S, L33V, V47L, Y50A, S52T, N53S, A55H, Y92D
B45: 373_B12 (antibody, V domains shown)
VH: B1 VH with S30D, G55S, K58T, G59S
VL: B1 VL with L30V, T31S, L33V, V47L, Y50A, S52T, N53S

Positions count from the first letter of the chain named.

In this assay the target is Human Fc (human). The assay is described as follows: ELISA, negative control. (In general: ELISA stands for enzyme-linked immunosorbent assay.)
B1 had an optical density of 0.361 OD.
Take B2: the optical density was found to be 0.279 OD.
B3 registered an optical density of 0.163 OD.
The result for B4 reads 0.304 OD; that for B5, 0.406 OD.
Molecule B6 gave an optical density of 0.337 OD.
Regarding B7, the optical density turned out to be 0.268 OD.
With B8, the optical density was 0.333 OD.
B9 returned an optical density of 0.433 OD.
As to B10, the optical density came out at 0.157 OD.
The result for B11 reads 0.354 OD; that for B12, 0.438 OD.
B13 returned an optical density of 0.441 OD.
The molecule B14 displayed an optical density of 0.175 OD.
Turning to B15, the optical density turned out to be 0.356 OD.
For B16, the optical density came to 0.338 OD.
For B17 the value was 0.384 OD; for B18, 0.308 OD; for B19, 0.483 OD.
The molecule B20 returned an optical density of 0.336 OD.
Turning to B21, the optical density worked out at 0.32 OD.
The molecule B22 showed an optical density of 0.174 OD.
B23 yielded an optical density of 0.195 OD.
B24 yielded an optical density of 0.221 OD.
The molecule B25 yielded an optical density of 0.315 OD.
As to B26, the optical density came out at 0.171 OD.
B27 yielded an optical density of 0.289 OD.
Molecule B28 yielded an optical density of 0.388 OD.
B29 came in with an optical density of 0.345 OD.
B30 showed an optical density of 0.393 OD.
For B31, the optical density is 0.529 OD.
B32: the optical density was found to be 0.339 OD.
For B33 the value was 0.335 OD; for B34, 0.38 OD; for B35, 0.421 OD.
Molecule B36 registered an optical density of 0.436 OD.
B37 gave an optical density of 0.41 OD.
As to B38, the optical density came out at 0.301 OD.
As to B39, the optical density stood at 0.356 OD.
On to B40, for which the optical density was found to be 0.16 OD.
On to B41, for which the optical density came to 0.176 OD.
The result for B42 reads 0.348 OD; that for B43, 0.375 OD; that for B44, 0.439 OD.
For B45, the optical density amounted to 0.172 OD.

(Values after US20210380703A1.)
